Data on one molecule can be found in patent publication US20140142040A1.

Where two headings read alike, the source gives them in different places.

The target in assay [1] is T1, human activated protein C (human), P04070.
T1 chain 1: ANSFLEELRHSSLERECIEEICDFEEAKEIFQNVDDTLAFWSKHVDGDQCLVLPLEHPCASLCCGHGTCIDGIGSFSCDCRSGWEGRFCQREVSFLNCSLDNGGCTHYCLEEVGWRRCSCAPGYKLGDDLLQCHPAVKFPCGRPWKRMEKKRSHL
T1 chain 2: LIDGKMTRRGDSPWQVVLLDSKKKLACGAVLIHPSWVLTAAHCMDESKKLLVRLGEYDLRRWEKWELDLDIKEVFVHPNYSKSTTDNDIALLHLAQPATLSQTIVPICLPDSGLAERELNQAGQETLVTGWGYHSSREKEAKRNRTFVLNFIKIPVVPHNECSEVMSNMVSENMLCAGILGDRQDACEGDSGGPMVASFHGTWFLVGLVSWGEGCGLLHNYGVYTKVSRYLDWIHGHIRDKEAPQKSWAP

Assay [2] addresses T1, human activated protein C (human), ….
For assay [3] the target is unchanged. In words: cell-based or functional assay.
For assay [4] the target is unchanged.
The target in assay [5] is human factor XIa (human), P03951.
Assay [6] has as its target T2, human plasmin (human), P00747.
T2 chain: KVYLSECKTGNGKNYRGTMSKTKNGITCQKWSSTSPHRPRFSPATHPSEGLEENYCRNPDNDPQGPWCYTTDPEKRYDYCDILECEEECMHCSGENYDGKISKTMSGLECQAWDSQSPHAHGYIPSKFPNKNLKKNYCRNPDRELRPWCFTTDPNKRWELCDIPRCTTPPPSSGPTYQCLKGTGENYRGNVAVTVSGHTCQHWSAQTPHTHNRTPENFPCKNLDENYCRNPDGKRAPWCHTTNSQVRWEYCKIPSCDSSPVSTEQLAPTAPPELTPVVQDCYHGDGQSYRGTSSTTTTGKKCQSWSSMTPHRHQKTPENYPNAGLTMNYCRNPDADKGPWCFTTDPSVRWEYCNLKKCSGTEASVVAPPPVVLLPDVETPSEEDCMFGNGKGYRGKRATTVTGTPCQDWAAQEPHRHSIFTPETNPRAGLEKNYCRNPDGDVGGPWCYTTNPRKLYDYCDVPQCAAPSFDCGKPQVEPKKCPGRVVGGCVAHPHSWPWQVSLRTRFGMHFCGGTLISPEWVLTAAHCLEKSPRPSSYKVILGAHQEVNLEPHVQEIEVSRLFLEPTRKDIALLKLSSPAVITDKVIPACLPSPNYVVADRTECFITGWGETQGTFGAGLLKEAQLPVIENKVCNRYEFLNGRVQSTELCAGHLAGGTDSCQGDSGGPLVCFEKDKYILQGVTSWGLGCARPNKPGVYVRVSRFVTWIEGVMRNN

B1: DrKIn-I (Daboia russelii Kunitz Inhibitor-I), A8Y7N4 25-90 (protein)
chain: QDRPKFCNLAPESGRCRGHLRRIYYNPDSNKCEVFFYGGCGGNDNNFETRKKCRQTCGAPRKGRPT
modifications: not checked
The molecule B1 displayed a Ki in assay [1] of 0.053 nM. In assay [2], this molecule gave a kon of 1.7e+07 M⁻¹ s⁻¹. The fold reduction of the IC50 by heparin in assay [3] worked out at 25 fold. In assay [4], the Kd was found to be 2.6 nM, the koff stood at 0.034 s⁻¹ and the kon was 1.3e+07 M⁻¹ s⁻¹. In addition, in assay [5], the Ki was 1.33 nM and the fold of Ki against the Ki for APC inhibition was over 25 fold. Further, in assay [6], the Ki came to 1.56 nM and the fold of Ki against the Ki for APC inhibition is over 25 fold.
